# B1: MR22950 antibody (antibody, V domains shown)
# VH: QLQLQESGPGLVKPSEPLSLTCAVSGGFIGTNWWTWIRQPPGKGLEWIGRISGSVGSTSYNPSLKSRVTISRDTSKNQFSLNLNSLTAADTAVYYCAREGRLDTLDWGQGVLVIVSS
# VL: QSVLTQPPSASEAARKSVTISCSGSSSNIGSYSVSWYQQFPGTPPKLLIYFNDQRASGVSDRFSGSKSGTSASLAISGLQTEDEADYYCAGWDDSLNGVLFGGGTRLTVLG
# Key:
# Assay in all cases: cell-based or functional assay
# [1] = biological target: SARS-CoV-2 Spike, Iota variant (SARS-CoV-2, UniProt P0DTC2 14-1273)
# [2] = biological target: SARS-CoV-2 Spike, Lambda variant (SARS-CoV-2, UniProt P0DTC2 14-1273)
# [3] = biological target: SARS-CoV-2 Spike, Zeta variant (SARS-CoV-2, UniProt P0DTC2 14-1273)
# [4] = biological target: T1, SARS-CoV-2 Spike, Alpha variant (SARS-CoV-2, UniProt P0DTC2 14-1273)
# [5] = biological target: SARS-CoV-2 Spike, Epsilon variant (SARS-CoV-2, UniProt P0DTC2 14-1273)
# [6] = biological target: SARS-CoV-2 Spike, Kappa variant (SARS-CoV-2, UniProt P0DTC2 14-1273)
# [7] = biological target: SARS-CoV-2 Spike, Eta variant (SARS-CoV-2, UniProt P0DTC2 14-1273)
# [8] = biological target: T2, SARS-CoV-2 Spike, Beta variant (SARS-CoV-2, UniProt P0DTC2 14-1273)
# [9] = biological target: T3, SARS-CoV-2 Spike, Gamma variant (SARS-CoV-2, UniProt P0DTC2 14-1273)
# [10] = biological target: T4, SARS-CoV-2 Spike, Delta variant (SARS-CoV-2, UniProt P0DTC2 14-1273)
# [11] = biological target: T1, SARS-CoV-2 Spike, Alpha variant; remark: listed apart in the source
# [12] = biological target: T2, SARS-CoV-2 Spike, Beta variant; remark: listed apart in the source
# [13] = biological target: T3, SARS-CoV-2 Spike, Gamma variant; remark: listed apart in the source
# [14] = biological target: T4, SARS-CoV-2 Spike, Delta variant; remark: listed apart in the source
binder,measurement,setting,value
B1,Neut50,[1],0.5 ng/mL
same,Neut50,[2],19 ng/mL
same,Neut50,[3],3.8 ng/mL
same,Neut50,[4],7.3 ng/mL
same,Neut50,[5],10.8 ng/mL
same,Neut50,[6],15 ng/mL
same,Neut50,[7],16 ng/mL
same,Neut50,[8],33 ng/mL
same,Neut50,[9],105 ng/mL
same,Neut50,[10],7.8 ng/mL
same,"Neut50 (ng/mL), authentic live virus, plaques on Vero cells",[11],4.7 ng/mL
same,"Neut50 (ng/mL), authentic live virus, plaques on Vero cells",[12],6.9 ng/mL
same,"Neut50 (ng/mL), authentic live virus, plaques on Vero cells",[13],12.7 ng/mL
same,"Neut50 (ng/mL), authentic live virus, plaques on Vero cells",[14],20.3 ng/mL
